In patent publication US20230227537A1:
pKd: −log10 of the molar value. “And” between values parts separate entries of the source, which are not always exact repeats. Identical values can stand only once.

Columns and labels:
[1] = molecular target: recombinant prefusion stabilized SARS-CoV-2-2P spike protein (SARS-CoV-2) (UniProt P0DTC2)
[2] = molecular target: Mouse IgG1 Fc fused SARS-CoV-2 RBD (Sino Biological) (SARS-CoV-2; mouse) (UniProt P0DTC2)

Substance	EC50 [1]	% Signal decrease over 8 min dissociation [2]	pKd [2]	kon [2]	koff [2]
D72-02: VHH72-GS-hIgG1hinge-hIgG1Fc (Fc fusion)	0.0223 µg/mL				
VHH72-T60W-hIgG1 Fc (P. pastoris supernatant) (Fc fusion)		13% and 15%	7.12 and 7.27	41500 M⁻¹ s⁻¹ and 49700 M⁻¹ s⁻¹	
VHH72_D61Q - (GGGGS)x2-hIgG1.Hinge-hIgG1.Fc (Fc fusion)		8% and 10%	10.18 and 10.19	2.76e+06 M⁻¹ s⁻¹ and 3.19e+06 M⁻¹ s⁻¹	0.000183 s⁻¹ and 0.000205 s⁻¹
VHH72_V100L - (GGGGS)x2-hIgG1.Hinge-hIgG1.Fc (Fc fusion)		23% and 25%	10.12 and 10.11	7.34e+06 M⁻¹ s⁻¹ and 8.26e+06 M⁻¹ s⁻¹	0.000557 s⁻¹ and 0.000637 s⁻¹
